Reference: patent US6034212
Ends that are not written are not given here. * marks the point of attachment. Biotin = O=C1N[C@H]2[C@H](CS[C@H]2CCCCC(=O)*)N1

Legend:
[1] = target: GST-SH3-Yes fusion protein (Gallus gallus (Chicken)) (UniProt P09324); assay: competition of labeled GST-YES-SH3 binding to blotted TrpE-YAP65
[2] = target: GST-WW-YAP fusion protein (WW domain of human YAP in pGEX-2TK) (human); assay: competition of a fixed concentration of labelled GST-WW-YAP on blotted GST-…, densitometry (data not shown)

Binder | concentration required to partially compete for binding [1] [µM] | IC50 [2] [nM]
ISQSAPVKQPPPLAPQSPQGGV [PLAP peptide] | 200 | –
Biotin-GTPPPPYTVG [unlabelled decapeptide biotin-… containing the PY motif] | – | 750
